Experiments:
human Kv1.3 = human Kv1.3 (Homo sapiens, UniProt P22001); assay: cell-based or functional assay
human Kv1.1 = human Kv1.1 (Homo sapiens, UniProt Q09470); assay: cell-based or functional assay
Chain of human Kv1.1 (Q09470 whole entry): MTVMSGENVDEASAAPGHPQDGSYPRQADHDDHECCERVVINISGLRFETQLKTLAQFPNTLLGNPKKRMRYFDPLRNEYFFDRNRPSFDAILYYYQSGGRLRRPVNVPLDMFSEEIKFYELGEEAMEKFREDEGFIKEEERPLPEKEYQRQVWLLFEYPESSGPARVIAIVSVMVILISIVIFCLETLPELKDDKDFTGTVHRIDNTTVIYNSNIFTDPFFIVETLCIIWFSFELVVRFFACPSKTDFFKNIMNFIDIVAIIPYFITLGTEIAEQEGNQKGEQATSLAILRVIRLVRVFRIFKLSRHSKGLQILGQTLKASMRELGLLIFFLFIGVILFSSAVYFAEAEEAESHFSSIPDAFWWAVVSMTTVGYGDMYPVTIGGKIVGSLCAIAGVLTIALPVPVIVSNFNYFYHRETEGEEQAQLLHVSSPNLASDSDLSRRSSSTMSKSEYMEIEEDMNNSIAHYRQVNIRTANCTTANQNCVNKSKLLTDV

Chain of human Kv1.3 (P22001 whole entry): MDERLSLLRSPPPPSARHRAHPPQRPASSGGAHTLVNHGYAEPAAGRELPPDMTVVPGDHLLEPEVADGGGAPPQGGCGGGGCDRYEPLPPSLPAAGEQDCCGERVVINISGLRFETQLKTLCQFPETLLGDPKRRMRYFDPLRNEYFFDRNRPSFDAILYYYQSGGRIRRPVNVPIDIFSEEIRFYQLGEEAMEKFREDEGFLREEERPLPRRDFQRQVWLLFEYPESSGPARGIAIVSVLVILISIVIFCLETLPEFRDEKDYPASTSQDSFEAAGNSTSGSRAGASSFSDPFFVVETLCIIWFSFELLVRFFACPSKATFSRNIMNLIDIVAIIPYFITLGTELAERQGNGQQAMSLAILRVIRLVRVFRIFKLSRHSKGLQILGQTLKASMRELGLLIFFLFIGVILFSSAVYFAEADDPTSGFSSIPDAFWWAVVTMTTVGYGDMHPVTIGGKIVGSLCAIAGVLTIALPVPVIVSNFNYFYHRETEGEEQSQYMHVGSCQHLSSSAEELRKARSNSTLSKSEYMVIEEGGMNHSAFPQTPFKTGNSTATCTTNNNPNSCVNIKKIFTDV

Question: How did the Kv1.3 (IWQ) IC50 (human Kv1.3) turn out when “[Glu4; Lys16,29;Arg18,30; Nle21]ShK-amide (peptide)” was run?
Answer: 0.269 nM

Question: And the WB (IFNg) IC50 (human Kv1.3)?
Answer: 1.33 nM

Question: What about the WB (IL-2) IC50 (human Kv1.3) of the same substance?
Answer: 1.96 nM

Question: What does the source list for “[Glu4; Lys16,29; 1-Nal26;Arg30]ShK-amide (peptide)”?
Answer: Kv1.3 (IWQ) IC50 (human Kv1.3): 0.384 nM; WB (IFNg) IC50 (human Kv1.3): 0.598 nM; WB (IL-2) IC50 (human Kv1.3): 0.712 nM

Question: Which results are given for “[Glu4;Lys16,29;1-Nal26;Arg30;Nle21]ShK-amide (peptide)”?
Answer: Kv1.3 (IWQ) IC50 (human Kv1.3): 1.66 nM; WB (IFNg) IC50 (human Kv1.3): 17.4 nM; WB (IL-2) IC50 (human Kv1.3): 10.7 nM; Kv1.1 (IWQ) IC50 (human Kv1.1): 3.3 nM

From patent publication US20120121591A1 (priority 2009, published 2012)
